Where a chain is given by its changes, count along the chain named. Names may count otherwise.
T1: EsCas13d, nuclease-dead (Eubacterium siraeum, UniProt B0MS50, R295A;H300A;R849A;H854A)
T1 sequence: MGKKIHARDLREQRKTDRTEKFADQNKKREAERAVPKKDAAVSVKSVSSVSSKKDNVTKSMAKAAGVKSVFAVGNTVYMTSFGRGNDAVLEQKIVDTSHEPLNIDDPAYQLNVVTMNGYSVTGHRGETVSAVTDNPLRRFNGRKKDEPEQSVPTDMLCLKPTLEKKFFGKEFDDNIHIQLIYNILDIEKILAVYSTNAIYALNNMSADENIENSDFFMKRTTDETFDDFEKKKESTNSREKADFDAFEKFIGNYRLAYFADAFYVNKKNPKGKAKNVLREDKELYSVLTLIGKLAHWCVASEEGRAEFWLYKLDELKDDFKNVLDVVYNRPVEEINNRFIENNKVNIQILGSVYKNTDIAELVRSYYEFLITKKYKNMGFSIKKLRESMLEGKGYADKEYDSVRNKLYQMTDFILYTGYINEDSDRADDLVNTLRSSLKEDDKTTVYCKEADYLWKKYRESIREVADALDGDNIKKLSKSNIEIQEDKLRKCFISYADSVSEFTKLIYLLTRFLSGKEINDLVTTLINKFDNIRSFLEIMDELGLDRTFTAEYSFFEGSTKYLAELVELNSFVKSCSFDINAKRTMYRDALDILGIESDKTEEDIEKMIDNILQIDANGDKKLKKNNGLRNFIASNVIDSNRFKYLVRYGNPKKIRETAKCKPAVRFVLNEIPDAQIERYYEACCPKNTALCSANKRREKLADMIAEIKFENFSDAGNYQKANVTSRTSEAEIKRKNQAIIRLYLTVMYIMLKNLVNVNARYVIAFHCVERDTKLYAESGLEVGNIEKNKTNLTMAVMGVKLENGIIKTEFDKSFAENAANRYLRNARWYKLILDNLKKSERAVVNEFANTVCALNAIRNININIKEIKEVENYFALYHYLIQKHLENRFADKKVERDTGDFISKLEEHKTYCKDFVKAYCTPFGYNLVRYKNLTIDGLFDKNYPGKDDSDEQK

B1: target 2 MT 5'PFS UGA 3'PFS AAC (mixed)
RNA 1: CACCCGUGCAAAAUUGCAGGGGUCUAAAACCUUCUCCAAAUUGUUUCAUCCU
RNA 2: GGGAAUGGAUCCACAUCUACGAAUUCUGAAGGAUGAAACAAUUUGGAGAAGAACAGAUCGGAAGAGCACACGU
B2: target 2 MT 5'PFS UGA 3'PFS AAA (mixed)
RNA 1: B1 RNA 1
RNA 2: B1 RNA 2 with C54A
B3: target 2 MT 5'PFS CAA 3'PFS CUA (mixed)
RNA 1: B1 RNA 1
RNA 2: B1 RNA 2 with U27C, G28A, A52C, A53U, C54A
B4: target 2 MT 5'PFS GGC 3'PFS CUU (mixed)
RNA 1: B1 RNA 1
RNA 2: B1 RNA 2 with U27G, A29C, A52C, A53U, C54U
B5: target 2 MT 5'PFS UCA 3'PFS UAG (mixed)
RNA 1: B1 RNA 1
RNA 2: B1 RNA 2 with G28C, A52U, C54G
B6: target 2 MT 5'PFS UGA 3'PFS CCG (mixed)
RNA 1: B1 RNA 1
RNA 2: B1 RNA 2 with A52C, A53C, C54G
B7: target 2 MT 5'PFS GGC 3'PFS CUC (mixed)
RNA 1: B1 RNA 1
RNA 2: B1 RNA 2 with U27G, A29C, A52C, A53U
B8: target 2 MT 5'PFS GAG 3'PFS ACC (mixed)
RNA 1: B1 RNA 1
RNA 2: B1 RNA 2 with U27G, G28A, A29G, A53C
B9: target 2 MT 5'PFS CAA 3'PFS CUC (mixed)
RNA 1: B1 RNA 1
RNA 2: B1 RNA 2 with U27C, G28A, A52C, A53U
B10: target 2 MT 5'PFS UUA 3'PFS CAC (mixed)
RNA 1: B1 RNA 1
RNA 2: B1 RNA 2 with G28U, A52C
B11: target 2 MT 5'PFS GAG 3'PFS ACA (mixed)
RNA 1: B1 RNA 1
RNA 2: B1 RNA 2 with U27G, G28A, A29G, A53C, C54A
B12: target 2 MT 5'PFS GGC 3'PFS CUG (mixed)
RNA 1: B1 RNA 1
RNA 2: B1 RNA 2 with U27G, A29C, A52C, A53U, C54G
B13: target 2 MT 5'PFS AAA 3'PFS ACC (mixed)
RNA 1: B1 RNA 1
RNA 2: B1 RNA 2 with U27A, G28A, A53C
B14: target 2 MT 5'PFS UUG 3'PFS CCG (mixed)
RNA 1: B1 RNA 1
RNA 2: B1 RNA 2 with G28U, A29G, A52C, A53C, C54G
B15: target 2 MT 5'PFS UCA 3'PFS UAC (mixed)
RNA 1: B1 RNA 1
RNA 2: B1 RNA 2 with G28C, A52U
B16: target 2 MT 5'PFS GAG 3'PFS ACG (mixed)
RNA 1: B1 RNA 1
RNA 2: B1 RNA 2 with U27G, G28A, A29G, A53C, C54G
B17: target 2 MT 5'PFS GGG 3'PFS ACC (mixed)
RNA 1: B1 RNA 1
RNA 2: B1 RNA 2 with U27G, A29G, A53C
B18: target 2 MT 5'PFS GGG 3'PFS ACU (mixed)
RNA 1: B1 RNA 1
RNA 2: B1 RNA 2 with U27G, A29G, A53C, C54U
B19: target 2 MT 5'PFS ACC 3'PFS UGA (mixed)
RNA 1: B1 RNA 1
RNA 2: B1 RNA 2 with U27A, G28C, A29C, A52U, A53G, C54A
B20: target 2 MT 5'PFS GGC 3'PFS CUA (mixed)
RNA 1: B1 RNA 1
RNA 2: B1 RNA 2 with U27G, A29C, A52C, A53U, C54A
B21: target 2 MT 5'PFS AAA 3'PFS ACA (mixed)
RNA 1: B1 RNA 1
RNA 2: B1 RNA 2 with U27A, G28A, A53C, C54A
B22: target 2 MT 5'PFS ACC 3'PFS UGU (mixed)
RNA 1: B1 RNA 1
RNA 2: B1 RNA 2 with U27A, G28C, A29C, A52U, A53G, C54U
B23: target 2 MT 5'PFS UAG 3'PFS CAC (mixed)
RNA 1: B1 RNA 1
RNA 2: B1 RNA 2 with G28A, A29G, A52C
B24: target 2 MT 5'PFS CGA 3'PFS AUC (mixed)
RNA 1: B1 RNA 1
RNA 2: B1 RNA 2 with U27C, A53U
B25: target 2 MT 5'PFS UUG 3'PFS CCU (mixed)
RNA 1: B1 RNA 1
RNA 2: B1 RNA 2 with G28U, A29G, A52C, A53C, C54U
B26: target 2 MT 5'PFS UGA 3'PFS CCA (mixed)
RNA 1: B1 RNA 1
RNA 2: B1 RNA 2 with A52C, A53C, C54A
B27: target 2 MT 5'PFS UUA 3'PFS CAU (mixed)
RNA 1: B1 RNA 1
RNA 2: B1 RNA 2 with G28U, A52C, C54U
B28: target 2 MT 5'PFS GAC 3'PFS CGC (mixed)
RNA 1: B1 RNA 1
RNA 2: B1 RNA 2 with U27G, G28A, A29C, A52C, A53G
B29: target 2 MT 5'PFS CGU 3'PFS ACG (mixed)
RNA 1: B1 RNA 1
RNA 2: B1 RNA 2 with U27C, A29U, A53C, C54G
B30: target 2 MT 5'PFS UUA 3'PFS CAA (mixed)
RNA 1: B1 RNA 1
RNA 2: B1 RNA 2 with G28U, A52C, C54A
B31: target 2 MT 5'PFS GUA 3'PFS UCC (mixed)
RNA 1: B1 RNA 1
RNA 2: B1 RNA 2 with U27G, G28U, A52U, A53C
B32: target 2 MT 5'PFS UUA 3'PFS CAG (mixed)
RNA 1: B1 RNA 1
RNA 2: B1 RNA 2 with G28U, A52C, C54G
B33: target 2 MT 5'PFS CGU 3'PFS ACU (mixed)
RNA 1: B1 RNA 1
RNA 2: B1 RNA 2 with U27C, A29U, A53C, C54U
B34: target 2 MT 5'PFS GGG 3'PFS ACA (mixed)
RNA 1: B1 RNA 1
RNA 2: B1 RNA 2 with U27G, A29G, A53C, C54A
B35: target 2 MT 5'PFS GGG 3'PFS ACG (mixed)
RNA 1: B1 RNA 1
RNA 2: B1 RNA 2 with U27G, A29G, A53C, C54G
B36: target 1 insU 3' of 12,insU 3' of 1 (mixed)
RNA 1: CACCCGUGCAAAAAUGCAGGGGUCUAAAACUGAGCGGAUAACCUCUCUAUGG
RNA 2: GGGAAUGGAUCCACAUCUACGAAUUCGUACCAUAGAGAGGUUUAUCCGCUCAUCCGAGAUCGGAAGAGCACACGU
B37: target 1 A1G,C2G (mixed)
RNA 1: B36 RNA 1
RNA 2: GGGAAUGGAUCCACAUCUACGAAUUCGUACCAUAGAGAGGUUAUCCGCUGGCCGAGAUCGGAAGAGCACACGU
B38: target 1 C6U,A16G (mixed)
RNA 1: B36 RNA 1
RNA 2: B37 RNA 2 with A36G, C46U, G50C, G51A

Target: T1, EsCas13d, nuclease-dead
Test: crRNA (strand 1, pre-loaded); Mg2+; 40 mM Tris-HCl pH 7.5, 150 mM NaCl, 6 mM MgCl2, 1 mM DTT, 0.1% Tween-20, 0.2 mg/ml BSA; 25 C; 10 min per concentration, then washed
Conditions: tags: His6-TwinStrep-SUMO cleaved; N-terminal SNAP kept (SNAP-Surface 488); label: 3' end held by stalled T7 RNA polymerase

Row | Binder | Kd [nM]
1 | B1 | 10.1 ± 2.4
2 | B2 | 9 ± 2.9
3 | B3 | ~5
4 | B4 | 17.6 ± 1.8
5 | B5 | 3.9 ± 0.5
6 | B6 | 9.2 ± 1
7 | B7 | 13.2 ± 1.2
8 | B8 | 14 ± 4
9 | B9 | 5.3 ± 2.1
10 | B10 | 30 ± 7
11 | B11 | 9.6 ± 1.6
12 | B12 | 12.9 ± 1.3
13 | B13 | 9.2 ± 2.8
14 | B14 | 16.8 ± 1.4
15 | B15 | 5.7 ± 0.9
16 | B16 | 6.7 ± 0.32
17 | B17 | 22 ± 4
18 | B18 | 9.3 ± 0.4
19 | B19 | 8 ± 1.4

Row | Binder | Kd [nM]
20 | B20 | 12 ± 1.9
21 | B21 | 7.8 ± 2.2
22 | B22 | 18 ± 6
23 | B23 | 2.69 ± 0.34
24 | B24 | 7.1 ± 1.4
25 | B25 | ~80
26 | B26 | 15.6 ± 2.8
27 | B27 | 14.3 ± 1.3
28 | B28 | 14.8 ± 3.2
29 | B29 | 21 ± 5
30 | B30 | 14.4 ± 2.6
31 | B31 | 29 ± 5
32 | B32 | 18.5 ± 1.9
33 | B33 | 23 ± 5
34 | B34 | 9.4 ± 0.8
35 | B35 | 10.4 ± 0.6
36 | B36 | 8.23 ± 0.33
37 | B37 | 5.54 ± 0.24
38 | B38 | 31.9 ± 2.2
